Measurements taken from article PMC10679502.
Primed or numbered codes have the meaning given here. * marks the point of attachment. EDANS′ = N-[2-[(5-sulfo-1-naphthalenyl)amino]ethyl]-L-α-glutamine (donor); DABCYL = 4-((4-(dimethylamino)phenyl)azo)benzoyl (quencher); Benzoyl(2-NHMe) = CNc1ccccc1C(=O)*

Molecular target: presenilin homolog from the methanogen Methanoculleus marisnigri JR1, wild type (Methanoculleus marisnigri JR1)

Km of cleavage, FRET enzyme kinetics assay (Michaelis-Menten), in DDM, no inhibitor, 37 °C, 500 nM MCM.IAP [µM] | Km of cleavage, FRET enzyme kinetics assay (Michaelis-Menten), in bicelles (DMPC/CHAPSO) [µM] | Km of cleavage, FRET enzyme kinetics assay (Michaelis-Menten), in DDM [µM] | Binder
4.9 | 6.3 |  | {EDANS′}-LVIVGLTFAV-{DABCYL} [ErbFRET EDANS-…-DABCYL]
 | 2.8 | 7.5 | {Benzoyl(2-NHMe)}-GGVVIATV-{Lys(DNP)} [C100FRET NMA-GGVVIATV-DNP]
